Experimental data reported in patent US12630630 (SHANGHAI HENLIUS BIOTECH, dated 2026).

Molecular target: T1, CD47 on human cells (Raji, Jurkat, red blood cells) (human, UniProt Q08722 19-311)
T1 construct: Endogenous CD47 on Raji, Jurkat and red blood cells; also called IAP; MER6
Assay: flow cytometry competition: antibody and a fixed concentration of biotin-human SIRPα-Fc co-incubated with CD47-expressing cells (Jurkat in Example 2; the legend also names Raji), streptavidin-PE
Experimental: Example 2. […] CD47-expressing cells (Jurkat) (1E5 cells/well) were washed and resuspended in FACS buffer (1×PBS with 2% FBS). […] Flow cytometric analyses were performed using the Cytomics FC 500 (Beckman Coulter Inc.).
IgG isotype control (an anti-PD1 antibody) were used as a negative control.

| Binder | IC50 (read off the curve) [µg/mL] |
| --- | --- |
| Clone M1 (antibody, human IgG4 S228P, lambda, V domains shown, also called antibody clone M1) VH: QVQLQQWGAGLLKPSETLSLTCAVYGGSFSGYYWSWIRQPPGKGLEWIGEINHSGSTNYNPSLKSRVTISVDTSKNQFSLRLSSVTAADTAMYYCARFTGRPYYGMDVWGQGTTVTVSS VL: LSYELTQPPSVSATPGQRVTISCSGSESNIGSHKVKWYQQFAGAAPRLLIHGNDQRRSGVPDRFSGSKSGTSASLAISGLQSEDEADYYCAAWDDSLNGRVFGGGTKLTVLG | ~1 |
| Clone M1 #46 (antibody, human IgG4 S228P, lambda, V domains shown) VH: QVQLQQWGAGLLKPSETLSLTCAVYGGSFSGYYWSWIRQPPGKGLEWIGEINHSGSTNYNPSLKSRVTISVDTSKNQFSLRLSSVTAADTAMYYCARFSGRPYYGMDVWGQGTTVTVSS VL: LSYELTQPPSVSATPGQRVTISCSGSESNIGSHKVKWYQQFAGAAPRLLIHGNDQRRSGVPDRFSGSKSGTSASLAISGLQSEDEADYYCAAWDDSLYGRVFGGGTKLTVLG | ~0.2 |
| Clone M1 #11 (antibody, human IgG4 S228P, lambda, V domains shown) VH: QVQLQQWGAGLLKPSETLSLTCAVYGGSFSGYYWSWIRQPPGKGLEWIGEINHSGSTNYNPSLKSRVTISVDTSKNQFSLRLSSVTAADTAMYYCARFHGRPYYGMDVWGQGTTVTVSS VL: LSYELTQPPSVSATPGQRVTISCSGSESNIGSHKVKWYQQFAGAAPRLLIHGNDQRRRGVPDRFSGSKSGTSASLAISGLQSEDEADYYCAAWDDSLYGRVFGGGTKLTVLG | ~0.06 |
| Clone M1 #21 (antibody, human IgG4 S228P, lambda, V domains shown) VH: QVQLQQWGAGLLKPSETLSLTCAVYGGSFSGYYWSWIRQPPGKGLEWIGEINQSGSTNYNPSLKSRVTISVDTSKNQFSLRLSSVTAADTAMYYCARFTGRPYYGMDVWGQGTTVTVSS VL: LSYELTQPPSVSATPGQRVTISCSGSESNIGSHKVKWYQQFAGAAPRLLIHGNDQRFSGVPDRFSGSKSGTSASLAISGLQSEDEADYYCAAWDDSLYGRVFGGGTKLTVLG | ~0.08 |
